Results: publication PMC12205087

Legend:
[1] = molecular target: DREN-APAZ protein of the NbaSPARDA system, strep-tagged (Novosphingopyxis baekryungensis); experiment: cryo-EM structure; active complex: NbaSPARDA with gRNA and 21-nt tDNA (1:1.2:1.2), 0.2 mg/mL; filament, 3.18 Å
[2] = molecular target: DREN-APAZ protein of the NbaSPARDA system, strep-tagged (Novosphingopyxis baekryungensis); experiment: cryo-EM structure; substrate-bound complex: NbaSPARDA with gRNA, 21-nt tDNA and substrate ssDNA, 0.16 mg/mL; filament, 3.19 Å
[3] = molecular target: NbaSPARDA complex (heterodimer of NbaAgo and DREN-APAZ), wild type (Novosphingopyxis baekryungensis); experiment: cryo-EM structure; guide-bound complex: NbaSPARDA with 20-nt 5'-phosphorylated gRNA (1:1.2, 25 °C, 15 min), 0.4 mg/mL, buffer F (20 mM Tris-HCl pH 8.0, 200 mM NaCl, 2 mM DTT, 2 mM MgCl2); 2.93 Å, C2 symmetry
[4] = molecular target: NbaSPARDA complex (heterodimer of NbaAgo and DREN-APAZ), wild type (Novosphingopyxis baekryungensis); experiment: cryo-EM structure; active complex: NbaSPARDA with gRNA and 21-nt tDNA (1:1.2:1.2), 0.2 mg/mL; filament, 3.18 Å

stoichiometry N [1]	stoichiometry N [2]	stoichiometry N [3]	stoichiometry N [4] [copies]	Substance
4	4			DREN-APAZ protein of the NbaSPARDA system, strep-tagged (natural protein)
		2	32	NbaSPARDA complex (heterodimer of NbaAgo and DREN-APAZ), wild type
